Data as given in patent CN115536747A.

Target: 人TROP2 on cells (表达TROP2的CHO细胞系; MCF, MDA-MB-231, MDA-MB-468, HCC1395 breast cancer cells) (human) (UniProt P09758)
Assay: flow cytometry, scFv-Fc on CHO cells expressing TROP2

Sequence of UniProt P09758 (P09758 27-323): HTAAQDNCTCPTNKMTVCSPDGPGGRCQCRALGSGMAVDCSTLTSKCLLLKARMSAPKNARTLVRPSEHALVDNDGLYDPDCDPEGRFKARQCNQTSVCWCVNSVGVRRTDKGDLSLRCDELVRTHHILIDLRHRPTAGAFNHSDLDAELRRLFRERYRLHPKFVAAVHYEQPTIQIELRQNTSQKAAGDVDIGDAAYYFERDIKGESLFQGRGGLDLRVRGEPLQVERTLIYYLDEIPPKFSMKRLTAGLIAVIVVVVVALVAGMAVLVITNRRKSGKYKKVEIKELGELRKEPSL

B1: 1F7 scFv-Fc蛋白 (from pFH-1F7; scFv fused to human IgG4 Fc) (Fc fusion, not shown: a dimerising Fc or GST)
chain: QVQLVQSGAEVKKPGASVKVSCKASGYTFTSYGINWVRQATGRGLEWMGWMNPNSGNTGYAQKFQGRVTITADESTSTAYMELSSLRSEDTAVYYCARPNTGGDGAFDIWGQGTMVTVSSGGSSRSSSSGGGGSGGGGDIQLTQSPSSVSASVGDRVTITCRASQGISSWLAWYRQKPGKAPKLLIYAASSLQSGVPSRFSGSGSGTDFTLTISSLQPEDFATYYCQQANSFPITFGQGTRLEIK
A 阳性百分数 of 89.3% was found for B1 in this work.
